Assay results taken from the RNAGym collection of RNA variant scans (doi:10.7554/elife.80360).

B1: Hairpin Ribozyme (parent)
chain: GUCCUCUUUCACGUGCGCGUGAAAGAGAGAAGUGAACCAGAGAAACACACGUUGUGGUAUAUUACCUGGUA

Variants of: B1
Experiment: self-cleavage, relative activity (ratio to wild type); higher = more cleavage; co-transcriptional

| Variant | self-cleavage |
| --- | --- |
| G34A G40U | 0.198 |
| G34A G42U | 0.406 |
| G34A G51A | 1.28 |
| G34A G51C | 1.15 |
| G34A G54A | 0.745 |
| G34A G54C | 0.302 |
| G34A G56A | 0.252 |
| G34A G57A | 0.207 |
| G34A G68U | 0.325 |
| G34A G69A | 0.568 |
| G34A G69C | 0.402 |
| G34A U52G | 1.09 |
| G34A U53A | 1.46 |
| G34A U53C | 1.13 |
| G34A U62A | 0.315 |
| G34A U63C | 0.0965 |
| G34A U67A | 0.194 |
| G34A U70G | 0.979 |
| G34C A35U | 1.61 |
| G34C A36C | 1.25 |
| G34C A36U | 0.938 |
| G34C A41C | 1.47 |
| G34C A41G | 1.31 |
| G34C A44G | 0.264 |

| Variant | self-cleavage |
| --- | --- |
| G34C A44U | 0.119 |
| G34C A45C | 0.0204 |
| G34C A47C | 1.38 |
| G34C A49C | 0.186 |
| G34C A49U | 0.743 |
| G34C A61G | 0.636 |
| G34C A71G | 1.66 |
| G34C C46U | 0.109 |
| G34C C48A | 0.411 |
| G34C C48U | 0.572 |
| G34C C50A | 1.1 |
| G34C C65A | 1.45 |
| G34C C66G | 0.627 |
| G34C C66U | 1.29 |
| G34C G40C | 0.188 |
| G34C G42A | 0.968 |
| G34C G42C | 0.907 |
| G34C G51C | 1.44 |
| G34C G54A | 1.2 |
| G34C G56A | 0.737 |
| G34C G56C | 0.37 |
| G34C G56U | 0.331 |
| G34C G57A | 0.427 |
| G34C G57U | 0.96 |

| Variant | self-cleavage |
| --- | --- |
| G34C G68A | 0.723 |
| G34C G69U | 0.729 |
| G34C U52A | 1.66 |
| G34C U53A | 0.963 |
| G34C U53C | 1.36 |
| G34C U53G | 1.03 |
| G34C U55A | 1.16 |
| G34C U55G | 1.19 |
| G34C U60A | 1.16 |
| G34C U60C | 1.41 |
| G34C U60G | 0.828 |
| G34C U62A | 0.471 |
| G34C U62G | 0.175 |
| G34C U67C | 0.785 |
| G34U A35U | 1.44 |
| G34U A36U | 1.52 |
| G34U A39G | 1.15 |
| G34U A39U | 1.14 |
| G34U A41C | 1.55 |
| G34U A41G | 0.857 |
| G34U A43G | 0.125 |
| G34U A44G | 0.348 |
| G34U A44U | 0.205 |
| G34U A45G | 0.472 |

| Variant | self-cleavage |
| --- | --- |
| G34U A49C | 0.433 |
| G34U A49G | 1.49 |
| G34U A49U | 1 |
| G34U A59C | 0.27 |
| G34U A61U | 1.13 |
| G34U A64U | 0.883 |
| G34U A71C | 1.72 |
| G34U C37G | 1.01 |
| G34U C38A | 0.658 |
| G34U C46G | 0.397 |
| G34U C46U | 0.102 |
| G34U C48A | 0.497 |
| G34U C48G | 0.371 |
| G34U C50G | 1.12 |
| G34U C50U | 0.913 |
| G34U C65A | 1.57 |
| G34U C65U | 1.3 |
| G34U C66A | 1.02 |
| G34U C66G | 0.548 |
| G34U C66U | 1.31 |
| G34U G40U | 0.7 |
| G34U G42U | 1.17 |
| G34U G51C | 1.49 |
| G34U G54C | 1.15 |

| Variant | self-cleavage |
| --- | --- |
| G34U G54U | 1.26 |
| G34U G56A | 0.788 |
| G34U G57U | 1.28 |
| G34U G68A | 1.17 |
| G34U G69C | 0.759 |
| G34U G69U | 1.1 |
| G34U U52A | 1.5 |
| G34U U53A | 1.46 |
| G34U U53C | 0.405 |
| G34U U53G | 1.58 |
| G34U U55C | 1.36 |
| G34U U62A | 0.981 |
| G34U U63C | 0.589 |
| G34U U63G | 0.261 |
| G34U U70G | 1.48 |
| A35C A36G | 0.683 |
| A35C A36U | 0.606 |
| A35C A39C | 0.226 |
| A35C A39G | 0.591 |
| A35C A41U | 1.35 |
| A35C A44C | 0.0528 |
| A35C A44U | 0.216 |
| A35C A45G | 0.083 |
| A35C A45U | 0.0921 |

| Variant | self-cleavage |
| --- | --- |
| A35C A47C | 0.564 |
| A35C A49U | 0.119 |
| A35C A59C | 0.258 |
| A35C A61C | 0.151 |
| A35C A61G | 0.234 |
| A35C A64C | 0.211 |
| A35C A64G | 0.513 |
| A35C A71C | 1.27 |
| A35C C37G | 0.282 |
| A35C C38A | 0.201 |
| A35C C46G | 0.0823 |
| A35C C48U | 0.101 |
| A35C C66A | 0.293 |
| A35C C66G | 0.159 |
| A35C G40C | 0.184 |
| A35C G51U | 1.24 |
| A35C G56C | 0.196 |
| A35C G57C | 0.134 |
| A35C G57U | 0.318 |
| A35C G68A | 0.279 |
| A35C G68C | 0.145 |
| A35C U52C | 1.05 |
| A35C U52G | 0.728 |
| A35C U53A | 0.995 |

| Variant | self-cleavage |
| --- | --- |
| A35C U53C | 0.835 |
| A35C U55C | 0.0658 |
| A35C U58A | 0.841 |
| A35C U58G | 0.954 |
| A35C U63A | 0.13 |
| A35C U67C | 0.217 |
| A35C U70A | 0.805 |
| A35C U70G | 0.676 |
| A35G A36C | 0.495 |
| A35G A36U | 0.695 |
| A35G A39C | 0.257 |
| A35G A41C | 1.31 |
| A35G A45U | 0.25 |
| A35G A49U | 0.174 |
| A35G A59C | 0.104 |
| A35G A61C | 0.0992 |
| A35G A61U | 0.245 |
| A35G A64U | 0.129 |
| A35G C37A | 0.416 |
| A35G C37G | 0.422 |
| A35G C38G | 0.129 |
| A35G C38U | 0.371 |
| A35G C46G | 0.0878 |
